In patent publication US20220168434A1, “APPLICATION OF TRANSTHYRETIN IN ENTERING EYE AND PREPARING DROP” (YIZHOU (SHANGHAI) BIOLOGICAL MEDICINE CO, LTD., priority 2019, published 2022):

Assays:
[1] = Protein content in vitreous body during two weeks of eye dropping (ELISA, anti-His tag antibody); type: in vivo, New Zealand big-eared rabbits (Oryctolagus cuniculus); conditions: New Zealand big-ear rabbits; protein not fused with TTR
Procedure: (§1) The purified TTR protein (at a concentration of 4 μmol/L) prepared in Example 1 after removal of endotoxin and bacteria was subject to treating healthy SD rats (Rattus norregicus) (6 weeks old) and New Zealand big-eared rabbits (Oryctolagus cuniculus) (2 months old, about 2.5 kg) by means of eye dropping, the left eye was the sample eye dropped with the protein, and the right eye was the blank control eye dropped with saline. The protein was administered 1-3 times per day at a dosage of 0.4-0.8 nmol. Two weeks later, the eyeball was removed and separated to obtain the vitreous body sample. It was preliminarily verified by western-blot method (FIG. 7A) that TTR can enter the vitreous cavity from the ocular surface.
(§2) The purified TTR-GFP protein (at a concentration of 4 μmol/L) prepared in Example 2 after removal of endotoxin and bacteria was subject to treating healthy SD rats (Rattus norregicus) (6 weeks old) and New Zealand big-eared rabbits (Oryctolagus cuniculus) (2 months old, about 2.5 kg) by means of eye dropping, the left eye was the sample eye dropped with the protein, and the right eye was the blank control eye dropped with saline. The protein was administered 1-3 times per day at a dosage of 0.4-0.8 nmol. […] The content of TTR-GFP in the vitreous body sample was determined by ELISA with the anti-His tag antibody as the primary antibody (Table 10 and 11). […]

[2] = as above; type: in vivo, SD rats (Rattus norregicus); conditions: SD rats; protein not fused with TTR
Procedure: as §1, §2

B1: Ovalbumin: Ovalbumin protein (UniProt Accession No.: P01012) not fused with TTR (protein, UniProt P01012 2-386, looked up)
Ovalbumin: GSIGAASMEFCFDVFKELKVHHANENIFYCPIAIMSALAMVYLGAKDSTRTQINKVVRFDKLPGFGDSIEAQCGTSVNVHSSLRDILNQITKPNDVYSFSLASRLYAEERYPILPEYLQCVKELYRGGLEPINFQTAADQARELINSWVESQTNGIIRNVLQPSSVDSQTAMVLVNAIVFKGLWEKAFKDEDTQAMPFRVTEQESKPVQMMYQIGLFRVASMASEKMKILELPFASGTMSMLVLLPDEVSGLEQLESIINFEKLTEWTSSNVMEERKIKVYLPRMKMEEKYNLTSVLMAMGITDVFSSSANLSGISSAESLKISQAVHAAHAEINEAGREVVGSAEAGVDAASVSEEFRADHPFLFCIKHIATNAVLFFGRCVSP
entering the vitreous body after eye dropping (in words) [1]: did not enter
entering the vitreous body after eye dropping (in words) [2]: did not enter
